Test results taken from patent EP2161338A1.

How the values were obtained:
[1] = molecular target: DNAX Leukocyte Associated Immunoglobulin-like Receptor (DLAIR-1), the DX26 antigen, product of the YE01 gene (human) (UniProt Q6GTX8); assay: flow cytometry on U937 myeloid tumor cells, PE goat-anti-mouse-IgG second step
[2] = molecular target: DNAX Leukocyte Associated Immunoglobulin-like Receptor (DLAIR-1), the DX26 antigen, product of the YE01 gene (human) (UniProt Q6GTX8); assay: flow cytometry on CEM T cell tumor cells, PE goat-anti-mouse-IgG second step
[3] = molecular target: DNAX Leukocyte Associated Immunoglobulin-like Receptor (DLAIR-1), the DX26 antigen, product of the YE01 gene (human) (UniProt Q6GTX8); assay: flow cytometry on Molt4 T cell tumor cells, PE goat-anti-mouse-IgG second step
[4] = molecular target: DNAX Leukocyte Associated Immunoglobulin-like Receptor (DLAIR-1), the DX26 antigen, product of the YE01 gene (human) (UniProt Q6GTX8); assay: flow cytometry on HL60 promyeloid tumor cells, PE goat-anti-mouse-IgG second step
[5] = molecular target: DNAX Leukocyte Associated Immunoglobulin-like Receptor (DLAIR-1), the DX26 antigen, product of the YE01 gene (human) (UniProt Q6GTX8); assay: flow cytometry on Jurkat T cell tumor cells, PE goat-anti-mouse-IgG second step
[6] = molecular target: DNAX Leukocyte Associated Immunoglobulin-like Receptor (DLAIR-1), the DX26 antigen, product of the YE01 gene (human) (UniProt Q6GTX8); assay: flow cytometry on Peer T cell tumor cells, PE goat-anti-mouse-IgG second step
[7] = molecular target: DNAX Leukocyte Associated Immunoglobulin-like Receptor (DLAIR-1), the DX26 antigen, product of the YE01 gene (human) (UniProt Q6GTX8); assay: flow cytometry on HUT78 T cell tumor cells, PE goat-anti-mouse-IgG second step
[8] = molecular target: DNAX Leukocyte Associated Immunoglobulin-like Receptor (DLAIR-1), the DX26 antigen, product of the YE01 gene (human) (UniProt Q6GTX8); assay: flow cytometry on Jurkat T cell tumor cells (DLAIR-positive), PE goat-anti-mouse-IgG second step
[9] = molecular target: DNAX Leukocyte Associated Immunoglobulin-like Receptor (DLAIR-1), the DX26 antigen, product of the YE01 gene (human) (UniProt Q6GTX8); assay: flow cytometry on U937 myeloid tumor cells (DLAIR-positive), PE goat-anti-mouse-IgG second step
[10] = molecular target: DNAX Leukocyte Associated Immunoglobulin-like Receptor (DLAIR-1), the DX26 antigen, product of the YE01 gene (human) (UniProt Q6GTX8); assay: flow cytometry on Peer T cell tumor cells (DLAIR-positive), PE goat-anti-mouse-IgG second step
[11] = molecular target: DNAX Leukocyte Associated Immunoglobulin-like Receptor (DLAIR-1), the DX26 antigen, product of the YE01 gene (human) (UniProt Q6GTX8); assay: flow cytometry on CEM T cell tumor cells (DLAIR-positive), PE goat-anti-mouse-IgG second step
[12] = molecular target: DNAX Leukocyte Associated Immunoglobulin-like Receptor (DLAIR-1), the DX26 antigen, product of the YE01 gene (human) (UniProt Q6GTX8); assay: flow cytometry on HL60 promyeloid tumor cells (DLAIR-positive), PE goat-anti-mouse-IgG second step
[13] = molecular target: DNAX Leukocyte Associated Immunoglobulin-like Receptor (DLAIR-1), the DX26 antigen, product of the YE01 gene (human) (UniProt Q6GTX8); assay: flow cytometry on Molt4 T cell tumor cells (DLAIR-positive), PE goat-anti-mouse-IgG second step

Row | mean fluorescence intensity (mean fluorescence intensity) [1] | mean fluorescence intensity (mean fluorescence intensity) [2] | mean fluorescence intensity (mean fluorescence intensity) [3] | mean fluorescence intensity (mean fluorescence intensity) [4] | mean fluorescence intensity (mean fluorescence intensity) [5] | mean fluorescence intensity (mean fluorescence intensity) [6] | mean fluorescence intensity (mean fluorescence intensity) [7] | mean fluorescence intensity (mean fluorescence intensity) [8] | mean fluorescence intensity (mean fluorescence intensity) [9] | mean fluorescence intensity (mean fluorescence intensity) [10] | mean fluorescence intensity (mean fluorescence intensity) [11] | mean fluorescence intensity (mean fluorescence intensity) [12] | mean fluorescence intensity (mean fluorescence intensity) [13] | Substance
1 | 49.5 | 92.7 | 30.7 | 46.9 | 47.1 | 29.1 | 25.8 | – | – | – | – | – | – | DX26 monoclonal antibody
2 | – | – | – | – | – | – | – | < 5 | < 5 | < 5 | < 5 | < 5 | < 5 | control IgG1 (antibody)
